The values below come from PMC4238996 (PLoS Neglected Tropical Diseases, 2014).

This assay has as its target T1, GST-tagged MupFHA (Mup018c, residues 1-362), wild type (M. ulcerans Agy99 (plasmid pMUM001), UniProt Q6MZ86 1-362).
T1 construct: also called MupFHA^wt; GST-MupFHA
T1 sequence: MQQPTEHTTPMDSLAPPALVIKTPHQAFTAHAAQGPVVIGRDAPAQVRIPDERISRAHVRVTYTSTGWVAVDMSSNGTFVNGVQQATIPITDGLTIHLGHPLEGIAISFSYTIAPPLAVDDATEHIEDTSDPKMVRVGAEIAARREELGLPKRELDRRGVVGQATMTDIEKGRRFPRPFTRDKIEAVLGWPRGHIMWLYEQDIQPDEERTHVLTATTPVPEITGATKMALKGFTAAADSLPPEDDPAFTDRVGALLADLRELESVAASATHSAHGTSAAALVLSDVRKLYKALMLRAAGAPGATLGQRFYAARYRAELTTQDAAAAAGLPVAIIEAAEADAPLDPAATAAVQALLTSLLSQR
The assay is described as follows: ELISA. As to conditions: both partners purified.

B1: MBP-tagged MupDivIVA S43/45/49A triple mutant (natural protein)
chain: MSHSELLDPALPKSPFGKQGYRYDDVDVFLRLIADELQGSDLAEADIHAITFRCAAPLTRGYDTESVDRFLDRIAETIARGHGDEGQ
Take B1: the binding result was “binds”.

B2: MBP-tagged MupDivIVA-P (Mup012c residues 1-87, phosphorylated by co-expression with PknQ) (natural protein, M. ulcerans Agy99 (plasmid pMUM001), UniProt Q6MZ92 1-87, looked up)
chain: MSHSELLDPALPKSPFGKQGYRYDDVDVFLRLIADELQGSDLSESDIHSITFRCAAPLTRGYDTESVDRFLDRIAETIARGHGDEGQ
notes: also called phosphorylated MupDivIVA
On to B2, for which the binding result is listed as “binds”.
